FRET efficiency <E%> data for one substance are collected here from PMC10041117.

For the assay, the target named is F-actin of the thin filaments in NRCs, labelled with Phalloidin-iFluor 514 (rat (endogenous in neonatal rat cardiomyocytes)) (UniProt P68035). Description: FRET or BRET; FRET-FLIM (time-domain, TCSPC, donor lifetime) in NRCs demembranated in relaxing solution with 25 μmol/L nitro-blebbistatin and fixed with paraformaldehyde; mTFP donor, mVenus or Phalloidin-iFluor514 acceptor; cells untreated or incubated with isoproterenol before skinning. (In general: In BRET a luciferase serves as donor, and the signal depends on an acceptor being close.)

Chain of mTFP-cMyBP-C (cardiac myosin binding protein-C with mTFP conjugated to its N terminus) (Q14896 whole entry): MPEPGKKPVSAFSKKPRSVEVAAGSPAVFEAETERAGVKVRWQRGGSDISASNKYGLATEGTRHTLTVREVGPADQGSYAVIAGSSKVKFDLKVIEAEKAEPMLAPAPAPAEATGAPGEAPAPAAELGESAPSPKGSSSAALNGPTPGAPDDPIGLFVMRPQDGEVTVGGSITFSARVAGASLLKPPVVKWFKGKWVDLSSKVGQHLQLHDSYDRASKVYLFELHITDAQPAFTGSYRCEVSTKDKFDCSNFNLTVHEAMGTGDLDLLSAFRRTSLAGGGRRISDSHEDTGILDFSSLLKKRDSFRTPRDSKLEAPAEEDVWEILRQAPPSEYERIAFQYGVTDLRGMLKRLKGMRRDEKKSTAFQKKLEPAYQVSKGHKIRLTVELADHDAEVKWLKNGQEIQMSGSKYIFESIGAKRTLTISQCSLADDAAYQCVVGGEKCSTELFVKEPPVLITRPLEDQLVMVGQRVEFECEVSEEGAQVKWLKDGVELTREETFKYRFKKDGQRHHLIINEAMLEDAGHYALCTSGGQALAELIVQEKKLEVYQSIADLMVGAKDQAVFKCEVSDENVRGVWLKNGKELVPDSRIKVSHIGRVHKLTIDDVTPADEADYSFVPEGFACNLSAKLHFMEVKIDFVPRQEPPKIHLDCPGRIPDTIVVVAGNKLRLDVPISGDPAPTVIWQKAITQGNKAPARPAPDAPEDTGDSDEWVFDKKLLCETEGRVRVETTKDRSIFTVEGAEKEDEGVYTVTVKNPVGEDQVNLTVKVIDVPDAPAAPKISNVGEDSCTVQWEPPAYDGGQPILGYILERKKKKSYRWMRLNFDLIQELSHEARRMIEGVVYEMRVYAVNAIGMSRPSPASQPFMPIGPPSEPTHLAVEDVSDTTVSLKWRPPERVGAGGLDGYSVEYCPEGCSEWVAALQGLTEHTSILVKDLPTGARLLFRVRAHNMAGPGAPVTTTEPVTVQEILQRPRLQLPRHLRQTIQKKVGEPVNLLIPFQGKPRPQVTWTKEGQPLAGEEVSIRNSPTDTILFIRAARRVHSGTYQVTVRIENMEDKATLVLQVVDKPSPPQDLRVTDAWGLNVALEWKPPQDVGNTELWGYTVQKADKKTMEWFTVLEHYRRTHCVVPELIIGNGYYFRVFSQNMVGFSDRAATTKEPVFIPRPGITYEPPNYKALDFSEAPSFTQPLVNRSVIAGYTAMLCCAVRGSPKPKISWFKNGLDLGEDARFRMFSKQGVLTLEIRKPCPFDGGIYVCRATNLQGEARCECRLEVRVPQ

Substance “mTFP-cMyBP-C (cardiac myosin binding protein-C with mTFP conjugated to its N terminus) (from UniProt Q14896 1-1274) (natural protein)” returned an FRET efficiency <E%> of 12%.
